Data: patent publication US20260201008A1, “SECRETIN-DERIVED GLP1R SELECTIVE AGONISTS” (GUBRA A/S, priority 2023, published 2026)
Numbered stars: 1 amine (or outer) side, 2 acyl side, 3 side chain; on linkers, the order of the positions; unused ones are H or OH. Square brackets hold non-standard residues; d marks the D form. Side chains are listed from the residue outwards. Ends that are not written are not given here. * marks the point of attachment. C20 diacid = O=C(O)CCCCCCCCCCCCCCCCCCC(=O)*; γGlu = O=C(O)[C@H](CCC(=O)[*:2])N[*:1]; AEEA = NCCOCCOCC(=O)O; Aib = CC(C)(N)C(=O)O

Columns and labels:
[1] = molecular target: human GLP-1 receptor (hGLP1R) (human, UniProt P43220 24-463); assay: cell-based or functional assay
[2] = molecular target: human secretin receptor (hSCTR) (human, UniProt P47872 23-440); assay: cell-based or functional assay
Chain of human secretin receptor (hSCTR) (P47872 23-440): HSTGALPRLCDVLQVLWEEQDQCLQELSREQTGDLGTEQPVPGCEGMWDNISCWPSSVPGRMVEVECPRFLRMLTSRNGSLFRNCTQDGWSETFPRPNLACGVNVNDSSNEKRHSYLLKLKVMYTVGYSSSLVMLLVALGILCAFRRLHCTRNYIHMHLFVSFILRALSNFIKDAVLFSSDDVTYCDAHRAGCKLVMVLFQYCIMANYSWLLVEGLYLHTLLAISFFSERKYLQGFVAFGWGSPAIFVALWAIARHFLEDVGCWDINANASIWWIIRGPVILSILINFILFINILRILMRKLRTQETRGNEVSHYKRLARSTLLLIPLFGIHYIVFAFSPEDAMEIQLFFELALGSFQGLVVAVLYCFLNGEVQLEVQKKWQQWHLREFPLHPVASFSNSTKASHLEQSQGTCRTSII

pEC50 hGLPR1 [1] | pEC50 hSCTR [2] | Binder
10.4 -log M | 7.3 -log M | H[Aib]EGTFTSDWSGLLEGAALQRFIQWLV-NH2 (N-terminus assumed; SMILES CC[C@H](C)[C@H](NC(=O)[C@H](Cc1ccccc1)NC(=O)[C@H](CCCNC(=N)N)NC(=O)[C@H](CCC(N)=O)NC(=O)[C@H](CC(C)C)NC(=O)[C@H](C)NC(=O)[C@H](C)NC(=O)CNC(=O)[C@H](CCC(=O)O)NC(=O)[C@H](CC(C)C)NC(=O)[C@H](CC(C)C)NC(=O)CNC(=O)[C@H](CO)NC(=O)[C@H](Cc1c[nH]c2ccccc12)NC(=O)[C@H](CC(=O)O)NC(=O)[C@H](CO)NC(=O)[C@@H](NC(=O)[C@H](Cc1ccccc1)NC(=O)[C@@H](NC(=O)CNC(=O)[C@H](CCC(=O)O)NC(=O)C(C)(C)NC(=O)[C@@H](N)Cc1c[nH]cn1)[C@@H](C)O)[C@@H](C)O)C(=O)N[C@@H](CCC(N)=O)C(=O)N[C@@H](Cc1c[nH]c2ccccc12)C(=O)N[C@@H](CC(C)C)C(=O)N[C@H](C(N)=O)C(C)C) [SEQ ID NO: 187]
10.6 -log M | 8 -log M | H[Aib]EGTFTSDYSGLLEGAALQRFIQWLV-NH2 (N-terminus assumed; SMILES CC[C@H](C)[C@H](NC(=O)[C@H](Cc1ccccc1)NC(=O)[C@H](CCCNC(=N)N)NC(=O)[C@H](CCC(N)=O)NC(=O)[C@H](CC(C)C)NC(=O)[C@H](C)NC(=O)[C@H](C)NC(=O)CNC(=O)[C@H](CCC(=O)O)NC(=O)[C@H](CC(C)C)NC(=O)[C@H](CC(C)C)NC(=O)CNC(=O)[C@H](CO)NC(=O)[C@H](Cc1ccc(O)cc1)NC(=O)[C@H](CC(=O)O)NC(=O)[C@H](CO)NC(=O)[C@@H](NC(=O)[C@H](Cc1ccccc1)NC(=O)[C@@H](NC(=O)CNC(=O)[C@H](CCC(=O)O)NC(=O)C(C)(C)NC(=O)[C@@H](N)Cc1c[nH]cn1)[C@@H](C)O)[C@@H](C)O)C(=O)N[C@@H](CCC(N)=O)C(=O)N[C@@H](Cc1c[nH]c2ccccc12)C(=O)N[C@@H](CC(C)C)C(=O)N[C@H](C(N)=O)C(C)C) [SEQ ID NO: 195]
10.1 -log M | 7.5 -log M | H[Aib]EGTFTSDWSVLLEGAALQRFIQWLV-NH2 (N-terminus assumed; SMILES CC[C@H](C)[C@H](NC(=O)[C@H](Cc1ccccc1)NC(=O)[C@H](CCCNC(=N)N)NC(=O)[C@H](CCC(N)=O)NC(=O)[C@H](CC(C)C)NC(=O)[C@H](C)NC(=O)[C@H](C)NC(=O)CNC(=O)[C@H](CCC(=O)O)NC(=O)[C@H](CC(C)C)NC(=O)[C@H](CC(C)C)NC(=O)[C@@H](NC(=O)[C@H](CO)NC(=O)[C@H](Cc1c[nH]c2ccccc12)NC(=O)[C@H](CC(=O)O)NC(=O)[C@H](CO)NC(=O)[C@@H](NC(=O)[C@H](Cc1ccccc1)NC(=O)[C@@H](NC(=O)CNC(=O)[C@H](CCC(=O)O)NC(=O)C(C)(C)NC(=O)[C@@H](N)Cc1c[nH]cn1)[C@@H](C)O)[C@@H](C)O)C(C)C)C(=O)N[C@@H](CCC(N)=O)C(=O)N[C@@H](Cc1c[nH]c2ccccc12)C(=O)N[C@@H](CC(C)C)C(=O)N[C@H](C(N)=O)C(C)C) [SEQ ID NO: 188]
10.1 -log M | 6.2 -log M | H[Aib]EGTFTSDVSRLK([AEEA-AEEA-γGlu-C20 diacid])ELAASQRFLEHLV-NH2 [SEQ ID NO: 19]
9.9 -log M | 7.3 -log M | H[Aib]EGTFTSDWS[Aib]LLEGAALQRFIQWLV-NH2 (N-terminus assumed; SMILES CC[C@H](C)[C@H](NC(=O)[C@H](Cc1ccccc1)NC(=O)[C@H](CCCNC(=N)N)NC(=O)[C@H](CCC(N)=O)NC(=O)[C@H](CC(C)C)NC(=O)[C@H](C)NC(=O)[C@H](C)NC(=O)CNC(=O)[C@H](CCC(=O)O)NC(=O)[C@H](CC(C)C)NC(=O)[C@H](CC(C)C)NC(=O)C(C)(C)NC(=O)[C@H](CO)NC(=O)[C@H](Cc1c[nH]c2ccccc12)NC(=O)[C@H](CC(=O)O)NC(=O)[C@H](CO)NC(=O)[C@@H](NC(=O)[C@H](Cc1ccccc1)NC(=O)[C@@H](NC(=O)CNC(=O)[C@H](CCC(=O)O)NC(=O)C(C)(C)NC(=O)[C@@H](N)Cc1c[nH]cn1)[C@@H](C)O)[C@@H](C)O)C(=O)N[C@@H](CCC(N)=O)C(=O)N[C@@H](Cc1c[nH]c2ccccc12)C(=O)N[C@@H](CC(C)C)C(=O)N[C@H](C(N)=O)C(C)C) [SEQ ID NO: 192]
10.2 -log M | 7 -log M | H[Aib]EGTFTSDWSFLLEGAALQRFIQWLV-NH2 (N-terminus assumed; SMILES CC[C@H](C)[C@H](NC(=O)[C@H](Cc1ccccc1)NC(=O)[C@H](CCCNC(=N)N)NC(=O)[C@H](CCC(N)=O)NC(=O)[C@H](CC(C)C)NC(=O)[C@H](C)NC(=O)[C@H](C)NC(=O)CNC(=O)[C@H](CCC(=O)O)NC(=O)[C@H](CC(C)C)NC(=O)[C@H](CC(C)C)NC(=O)[C@H](Cc1ccccc1)NC(=O)[C@H](CO)NC(=O)[C@H](Cc1c[nH]c2ccccc12)NC(=O)[C@H](CC(=O)O)NC(=O)[C@H](CO)NC(=O)[C@@H](NC(=O)[C@H](Cc1ccccc1)NC(=O)[C@@H](NC(=O)CNC(=O)[C@H](CCC(=O)O)NC(=O)C(C)(C)NC(=O)[C@@H](N)Cc1c[nH]cn1)[C@@H](C)O)[C@@H](C)O)C(=O)N[C@@H](CCC(N)=O)C(=O)N[C@@H](Cc1c[nH]c2ccccc12)C(=O)N[C@@H](CC(C)C)C(=O)N[C@H](C(N)=O)C(C)C) [SEQ ID NO: 190]
10.1 -log M | 7.2 -log M | H[Aib]EGTFTSDWSWLLEGAALQRFIQWLV-NH2 (N-terminus assumed; SMILES CC[C@H](C)[C@H](NC(=O)[C@H](Cc1ccccc1)NC(=O)[C@H](CCCNC(=N)N)NC(=O)[C@H](CCC(N)=O)NC(=O)[C@H](CC(C)C)NC(=O)[C@H](C)NC(=O)[C@H](C)NC(=O)CNC(=O)[C@H](CCC(=O)O)NC(=O)[C@H](CC(C)C)NC(=O)[C@H](CC(C)C)NC(=O)[C@H](Cc1c[nH]c2ccccc12)NC(=O)[C@H](CO)NC(=O)[C@H](Cc1c[nH]c2ccccc12)NC(=O)[C@H](CC(=O)O)NC(=O)[C@H](CO)NC(=O)[C@@H](NC(=O)[C@H](Cc1ccccc1)NC(=O)[C@@H](NC(=O)CNC(=O)[C@H](CCC(=O)O)NC(=O)C(C)(C)NC(=O)[C@@H](N)Cc1c[nH]cn1)[C@@H](C)O)[C@@H](C)O)C(=O)N[C@@H](CCC(N)=O)C(=O)N[C@@H](Cc1c[nH]c2ccccc12)C(=O)N[C@@H](CC(C)C)C(=O)N[C@H](C(N)=O)C(C)C) [SEQ ID NO: 191]
11.2 -log M | 7.3 -log M | H[Aib]EGTFTSDWSYLK([AEEA-AEEA-γGlu-C20 diacid])EEA[Aib]LQRFLEHLV-NH2 [SEQ ID NO: 185]
10.6 -log M | 7.9 -log M | H[Aib]EGTFTSDWSELLEGAALQRFIQWLV-NH2 (N-terminus assumed; SMILES CC[C@H](C)[C@H](NC(=O)[C@H](Cc1ccccc1)NC(=O)[C@H](CCCNC(=N)N)NC(=O)[C@H](CCC(N)=O)NC(=O)[C@H](CC(C)C)NC(=O)[C@H](C)NC(=O)[C@H](C)NC(=O)CNC(=O)[C@H](CCC(=O)O)NC(=O)[C@H](CC(C)C)NC(=O)[C@H](CC(C)C)NC(=O)[C@H](CCC(=O)O)NC(=O)[C@H](CO)NC(=O)[C@H](Cc1c[nH]c2ccccc12)NC(=O)[C@H](CC(=O)O)NC(=O)[C@H](CO)NC(=O)[C@@H](NC(=O)[C@H](Cc1ccccc1)NC(=O)[C@@H](NC(=O)CNC(=O)[C@H](CCC(=O)O)NC(=O)C(C)(C)NC(=O)[C@@H](N)Cc1c[nH]cn1)[C@@H](C)O)[C@@H](C)O)C(=O)N[C@@H](CCC(N)=O)C(=O)N[C@@H](Cc1c[nH]c2ccccc12)C(=O)N[C@@H](CC(C)C)C(=O)N[C@H](C(N)=O)C(C)C) [SEQ ID NO: 193]
10.9 -log M | 7.7 -log M | H[Aib]EGTFTSDYSYLK([AEEA-AEEA-γGlu-C20 diacid])EEA[Aib]LQRFLEHLV-NH2 [SEQ ID NO: 196]
10.7 -log M | 6.4 -log M | H[Aib]EGTFTSDVSTLK([AEEA-AEEA-γGlu-C20 diacid])ETAASQRFLEHLV-NH2 [SEQ ID NO: 20]
10.8 -log M | 6.8 -log M | H[Aib]EGTFTSDWSYLLEGAALQRFIQWLV-NH2 (N-terminus assumed; SMILES CC[C@H](C)[C@H](NC(=O)[C@H](Cc1ccccc1)NC(=O)[C@H](CCCNC(=N)N)NC(=O)[C@H](CCC(N)=O)NC(=O)[C@H](CC(C)C)NC(=O)[C@H](C)NC(=O)[C@H](C)NC(=O)CNC(=O)[C@H](CCC(=O)O)NC(=O)[C@H](CC(C)C)NC(=O)[C@H](CC(C)C)NC(=O)[C@H](Cc1ccc(O)cc1)NC(=O)[C@H](CO)NC(=O)[C@H](Cc1c[nH]c2ccccc12)NC(=O)[C@H](CC(=O)O)NC(=O)[C@H](CO)NC(=O)[C@@H](NC(=O)[C@H](Cc1ccccc1)NC(=O)[C@@H](NC(=O)CNC(=O)[C@H](CCC(=O)O)NC(=O)C(C)(C)NC(=O)[C@@H](N)Cc1c[nH]cn1)[C@@H](C)O)[C@@H](C)O)C(=O)N[C@@H](CCC(N)=O)C(=O)N[C@@H](Cc1c[nH]c2ccccc12)C(=O)N[C@@H](CC(C)C)C(=O)N[C@H](C(N)=O)C(C)C) [SEQ ID NO: 189]
